Experimental findings from patent publication US20160311913A1 (Amgen, published 2016) are described below.

This assay concerns the target human CGRP receptor (human, UniProt Q16602 23-461; O60894 27-148). Description: cell-based or functional assay.

human CGRP receptor, sequence (Q16602 23-461 limits assumed, chain 1 of 2): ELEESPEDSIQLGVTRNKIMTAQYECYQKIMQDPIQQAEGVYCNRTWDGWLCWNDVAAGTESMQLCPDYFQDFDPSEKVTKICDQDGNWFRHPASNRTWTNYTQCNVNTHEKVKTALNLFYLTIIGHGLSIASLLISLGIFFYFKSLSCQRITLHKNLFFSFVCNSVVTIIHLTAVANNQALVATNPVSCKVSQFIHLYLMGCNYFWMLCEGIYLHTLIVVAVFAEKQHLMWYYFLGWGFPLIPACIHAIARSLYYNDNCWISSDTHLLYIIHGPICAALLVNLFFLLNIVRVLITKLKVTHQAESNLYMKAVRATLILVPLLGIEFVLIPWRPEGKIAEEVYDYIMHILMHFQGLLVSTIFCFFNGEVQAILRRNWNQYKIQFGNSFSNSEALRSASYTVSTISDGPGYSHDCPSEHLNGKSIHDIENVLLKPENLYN
human CGRP receptor, sequence (O60894 27-148 limits assumed, chain 2 of 2): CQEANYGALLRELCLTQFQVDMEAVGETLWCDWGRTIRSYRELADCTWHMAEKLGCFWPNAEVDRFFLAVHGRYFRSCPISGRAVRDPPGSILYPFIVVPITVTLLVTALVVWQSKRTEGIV

B1: AMG 334 (antibody, human IgG2, lambda, V domains shown)
VH: QVQLVESGGGVVQPGRSLRLSCAASGFTFSSFGMHWVRQAPGKGLEWVAVISFDGSIKYSVDSVKGRFTISRDNSKNTLFLQMNSLRAEDTAVYYCARDRLNYYDSSGYYHYKYYGMAVWGQGTTVTVSS
VL: QSVLTQPPSVSAAPGQKVTISCSGSSSNIGNNYVSWYQQLPGTAPKLLIYDNNKRPSGIPDRFSGSKSGTSTTLGITGLQTGDEADYYCGTWDSRLSAVVFGGGTKLTVLG
For B1, the “serum AMG 334 concentration associated with the half maximal effect (EC50) on capsaicin-induced DBF” value was 286 ng/mL and the “serum AMG 334 concentration for 50% of maximal inhibition of capsaicin-induced dermal blood flow (EC50)” value is 218 ng/mL.
